According to publication PMC9712689 (Communications Biology, 2022):

Legend:
Settings in all cases: both partners purified
[1] = target: T1, RlpA-Δ32·MltF2 complex (MST) (P. aeruginosa PAO1, UniProt Q9X6V6;Q9HZY1, amine reactive RED-NHS dye); test: MST
T1 sequence 1: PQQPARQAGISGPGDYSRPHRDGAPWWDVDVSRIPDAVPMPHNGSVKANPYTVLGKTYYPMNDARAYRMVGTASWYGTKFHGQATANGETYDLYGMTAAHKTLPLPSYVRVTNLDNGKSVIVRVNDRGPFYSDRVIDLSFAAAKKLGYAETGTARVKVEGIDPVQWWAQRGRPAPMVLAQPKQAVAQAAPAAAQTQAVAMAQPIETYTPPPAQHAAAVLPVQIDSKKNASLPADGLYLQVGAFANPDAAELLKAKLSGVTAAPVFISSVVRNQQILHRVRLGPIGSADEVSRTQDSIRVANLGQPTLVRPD
T1 sequence 2: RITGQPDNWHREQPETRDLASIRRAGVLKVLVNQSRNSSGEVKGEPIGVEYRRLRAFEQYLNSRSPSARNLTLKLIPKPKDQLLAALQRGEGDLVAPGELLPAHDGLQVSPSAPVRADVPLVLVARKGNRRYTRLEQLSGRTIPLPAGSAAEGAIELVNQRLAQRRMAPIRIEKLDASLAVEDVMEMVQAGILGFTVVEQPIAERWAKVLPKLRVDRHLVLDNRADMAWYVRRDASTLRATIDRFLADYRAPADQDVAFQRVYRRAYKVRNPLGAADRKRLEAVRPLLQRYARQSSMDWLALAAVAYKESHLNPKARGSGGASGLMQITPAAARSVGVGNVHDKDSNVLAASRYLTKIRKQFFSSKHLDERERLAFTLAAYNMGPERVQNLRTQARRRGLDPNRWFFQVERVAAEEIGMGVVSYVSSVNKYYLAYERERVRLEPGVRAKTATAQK

[2] = target: T2, RlpA-Δ32, fluorescently labeled (P. aeruginosa PAO1, UniProt Q9X6V6 32-342, amine reactive RED-NHS dye); test: MST
T2 construct: source: E. coli BL21-star (DE3), purified (Ni-NTA), labelled with RED-NHS dye
T2 sequence: T1 sequence 1

RlpA-Δ32 = target: T3, RlpA-Δ32 (P. aeruginosa PAO1, UniProt Q9X6V6 32-342); test: SPR
T3 construct: source: E. coli BL21-star (DE3), purified (Ni-NTA)
T3 sequence: T1 sequence 1

RlpA-Δ81 = target: T4, RlpA-Δ81 (P. aeruginosa PAO1, UniProt Q9X6V6 82-342); test: SPR
T4 construct: source: E. coli BL21-star (DE3), purified (Ni-NTA)
T4 sequence: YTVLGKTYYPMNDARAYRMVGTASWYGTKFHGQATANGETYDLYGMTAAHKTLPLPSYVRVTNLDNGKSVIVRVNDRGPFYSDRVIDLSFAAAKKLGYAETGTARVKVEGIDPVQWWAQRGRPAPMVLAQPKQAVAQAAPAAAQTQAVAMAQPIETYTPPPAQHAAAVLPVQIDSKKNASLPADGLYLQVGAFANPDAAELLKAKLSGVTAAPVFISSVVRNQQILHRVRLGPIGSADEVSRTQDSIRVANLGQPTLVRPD

B1: TypA (natural protein, P. aeruginosa PAO1, UniProt Q9HU67 1-605, looked up)
chain: MIENLRNIAIIAHVDHGKTTLVDKLLKLSGTLDRKEAESERVMDSNDQEKERGITILAKNTAIKWNGYNINIVDTPGHADFGGEVERVMSMVDSVLLVVDAQDGPMPQTRFVTQKAFKAGLRPIVVVNKIDRPGARPDWVIDQIFDLFDNLGATDEQLDFPIVYASALNGIAGLDHEKMDDNMDALFQAIIDHVPAPVVDTEGPFQMQISQLDYNSFLGVIGIGRITRGKVKSNTPVVAISDDGSKRNGRILKIMGHHGLQRVEVAEAEAGDIVCVSGMEELFISDTLCDPQNVEALPPLTVDQPTVSMTFQVNDSPFAGREGKFVTSRNIKERLEKELLHNVALRVEPGDSPEKFKVSGRGELHLSVLIETMRREGFELAVGRPEVVIIEKDGEKQEPYENVTIDIEEQHQGSVMEQMGLRKGDLSNMIPDGKGRVRLEYTIPARGLIGFRNNFLTLTSGTGILTSTFSHYGPIKAGEVSNRQNGVLVSMATGTALTYSLETLQSRGKLFLGPGDEIYEGQLAGINSRDNDLVINPTKGKKLDNMRASGKDEVIALVPPIRFTLEQALEFIADDELVEVTPKSIRLRKKMLNENDRKRYERSKV
**Q.** B1 was tested. Which Kd [1] did it give?
**A.** 1800 nM

B2: PA4063 (natural protein)
chain: HDDHDHDHAHGSLGKHEHGVAQLNVALDGKTLELELDSPAMNLVGFEHAASTDADKAAVAKARAQLEKPLELFALPVTAGCSVASQELRSPLFGDKAPAHAHKEKAGHEHEHEHEHEHGHADIHAHYQLSCEKPELLKLLTLAEFFKRFPATQKIQVQLIGPDGQKGADLAPASAELKL
notes: source: E. coli, purified (Ni-NTA or Strep-Tactin)
**Q.** For B2, which Kd [2] is on record?
**A.** 201 nM

**Q.** What about the Kd [1] of the same binder?
**A.** 105 nM

**Q.** And the Kd (RlpA-Δ32)?
**A.** 810 nM

**Q.** And the koff (RlpA-Δ32)?
**A.** 0.00145 s⁻¹

**Q.** And the kon (RlpA-Δ32)?
**A.** 1800 M⁻¹ s⁻¹

**Q.** And the Kd (RlpA-Δ81)?
**A.** 1080 nM

**Q.** And the koff (RlpA-Δ81)?
**A.** 0.00194 s⁻¹

**Q.** And the kon (RlpA-Δ81)?
**A.** 1800 M⁻¹ s⁻¹

B3: PBP4 (enzyme, P. aeruginosa PAO1, UniProt Q9HZG1 1-476, looked up)
chain: QVNATLPANVQKALQTNKLTGNDLSLVLIPLDGPGNPTYYNADVSVNPASTMKLFTTYAALEMLGPTYQWKTEFYTDGQLKNGVLNGNLYLKGGGDPKLNMEKLWLLMRDLRANGVTKVTGDLVLDRSYFNIPQLPVFNDDGGDDTKPFLVGPDSLLVNLKSVRMVVRTDGNKVNVQMDPPLANVRIDNQVKMTAPATCPAWPKLRFSPVTQFDGTTLLATGQIPQGCSAQTYMSLLDHPGYTAGAVRGIWQELGGSILGKDRQGSVPRNATLIAKAFSPDLVEIIRDINKYSNNTMARQLFLSIGAQFRNSADGDDAQAAQRVVRQWLARKGITAPRLVMENGSGLSRQERVSAREMAAMLQAAWHSPYAAEYISSLPLAGLDGTMRKRLRRTALVGEAHVKTGTLNTVRALAGFSRDASGHNWVVVAILNSPRPWGASAILDQVLLSLHARK
**Q.** How did the Kd [1] turn out when B3 was run?
**A.** 240 nM

B4: SltB1 (enzyme, P. aeruginosa PAO1, UniProt Q9HX24 1-340, looked up)
chain: GDYDGSPQVAEFVSEMTRDYGFAGEQLMGLFRDVNRKQSILDAISRPAERVKQWKEYRPIFISDARISRGVDFWNKHAEDLARAEKEYGVPAEIIVSIIGVETFFGRNTGSYRVMDALSTLGFDYPPRADFFRKELREFLLLAREQQVDPLSLTGSYAGAMGLPQFMPSSFRAYAVDFDGDGHINIWSDPTDAIGSVASYFKQHGWVTGEPVVSVAEINDESAESAVTRGVDPTMSLGELRARGWRTHDALRDDQKVTAMRFVGDKGIEYWVGLPNFYVITRYNRSAMYAMAVYQLAGEIARARGAH
**Q.** What does the source list for B4?
**A.** Kd [2]: 140 nM; Kd [1]: 95 nM; Kd (RlpA-Δ32): 3850 nM; koff (RlpA-Δ32): 0.00127 s⁻¹; kon (RlpA-Δ32): 330 M⁻¹ s⁻¹

B5: PA2854 (natural protein)
chain: LELQLPPPGEDVVGQVQVIKAKYEDTFADLGEQYNLGYSEMVAANPGVDPWLPGVGTEVIIPTRFVLPPGPREGVVINLAEYRLYYYPKGQNVVHTYPLGIGREGWGSPIANTRITAKTKDPAWYPPASIRAEHAADGDPLPTVVPPGPDNPLGPYKLTLGVPGYLIHGSNKKFGIGTRTSHGCFRMYNADVTHLFSMISVGTSVRIINEPYKFGVSNGKVYLEAHTPLNDHGDPSVVDKHTAVINTLLKRDDLAKRIQLNWDVVREVVASEDGVPVEIAQESAPAMTATVDSDPTQLTP
notes: as for B2
**Q.** B5 was tested. Which Kd [2] did it give?
**A.** 58 nM

**Q.** What about the Kd [1] of the same binder?
**A.** 55 nM

**Q.** What about the Kd (RlpA-Δ32) of the same binder?
**A.** 65 nM

**Q.** What about the koff (RlpA-Δ32) of the same binder?
**A.** 0.00032 s⁻¹

**Q.** What about the kon (RlpA-Δ32) of the same binder?
**A.** 4900 M⁻¹ s⁻¹

B6: PilA (natural protein)
chain: PQYQNYVARSEGASALATINPLKTTVEESLSRGIAGSKIKIGTTASTATETYVGVEPDANKLGVIAVAIEDSGAGDITFTFQTGTSSPKNATKVITLNRTADGVWACKSTQDPMFTPKGCDN
notes: as for B2
**Q.** What does the source list for B6?
**A.** Kd [2]: 240 nM; Kd [1]: 309 nM; Kd (RlpA-Δ32): 1980 nM; koff (RlpA-Δ32): 0.00218 s⁻¹; kon (RlpA-Δ32): 1100 M⁻¹ s⁻¹

B7: LptE (natural protein)
chain: not shown
**Q.** How did the Kd [2] turn out when B7 was run?
**A.** 77 nM

**Q.** And the Kd [1]?
**A.** 150 nM

B8: PBP7 (enzyme, P. aeruginosa PAO1, UniProt P72161 24-310, looked up)
chain: SPPPKAGLPLQQELASGSALVTDQNTGKVLYSRNPDLVVPIASITKLMTAMVVLDSKLPLDEVLPIAISETSEMRGVFSRVRVGSQISRRDMLLLALMSSENRAAASLAQNYPGGKNAFVKAMNAKAHALGMKNTRYVEPTGLSLHNVSTARDLTRLLVASRQYPLLSQWSTTPEKTVAFRHPNYTLGFRNTNHLINNKTWNIQLTKTGFTNEAGHCLVMRTTINRSPVNLVVLDAFGKYTHFADATRLRRWLETGQVTAIPAAAKAYRLQRDRERGLGQPVAQAVR
**Q.** Which results are given for B8?
**A.** Kd [2]: 430 nM; kon (RlpA-Δ32): 5900 M⁻¹ s⁻¹

B9: PilO (natural protein)
chain: YNFHLSDMQAQLEQQAAEEETLKQQFSTKAFQAANLEAYKAQMKEMEESFGALLRQLPSDTEVPGLLEDITRTGLGSGLEFEEIKLLPEVAQQFYIELPIQISVVGGYHDLATFVSGVSSLPRIVTLHDFEIKPVAPGSTSKLRMSILAKTYRYNDKGLKK
notes: as for B2
**Q.** What does the source list for B9?
**A.** Kd [2]: 350 nM; Kd [1]: 208 nM; Kd (RlpA-Δ32): 3130 nM; koff (RlpA-Δ32): 0.00275 s⁻¹; kon (RlpA-Δ32): 880 M⁻¹ s⁻¹; Kd (RlpA-Δ81): 1010 nM; koff (RlpA-Δ81): 0.00076 s⁻¹; kon (RlpA-Δ81): 750 M⁻¹ s⁻¹

B10: AlgO (natural protein)
chain: STAVSVGSAQNSWDSLQPDREQVIASLNVVELLKRHHYNKPPLNDERSAKIYDSYLKMLDPARMYFTAGDIAEFDRWRNRFDDFLKSGDLDPGFVIYKRHLDRLKGRLDYALAMLDKGVDKIDFSVDESLLIDREKAPWAKDTAELDDLWRKKVKDEVLRLKITGKDDKAIQEQLTKRYKNQLSRLKQTRSEDIFQAYINAFAQSYDPHTQYLSPDNAENFDINMSLSLEGIGAVLQSDNDYVKVVRLVPAGPAAKSKQIATSDKIIGVAQGKGEMVDVVGWRLDEVVKLIRGPKGSQVRLEVIPASNAPNDQTSKIVAITREAVKLEDQAAKKSIIKVDHEGRSYKLGVIDLPAFYLDFKAYRAGDPNYKSTTRDVKKLVAELQKDKVDGIVLDLRNNGGGSLQEATELTGLFIDQGPTVLVRNSDGRVDVLNDDEGKAFYTGPLAVLVNRLSASASEIFAGAMQDYHRALILGGQTFGKGTVQTIQPLNHGELKLTLAKFYRVSGQSTQHQGVIPDISYPSIVDDKEIGESALPDSMPWDTIRPVVKDEANPFKPFLAQLKAQHDARTENNADFVYARERLALAQELMKEKTVSLNEAKRRAQQTSIENRQLAMENALRKSKGQEPLKELKREDENALPEEDDKTKPQDDAYLTESGHILLDYLNLNSAVAKH
notes: as for B2
**Q.** Which Kd [1] does the source give for B10 here?
**A.** 16000 nM
